Data from article PMC10311464.

Target: hnRNP D0 isoform 3, Myc-DDK-tagged (Origene RC200660) (UniProt Q14103-3 1-306)
Test: EMSA

B1: rs678849 T allele probe (dsDNA)
DNA 1: TCAAAAGTACCTGCT
DNA 2: AGCAGGTACTTTTGA
  binding result: binds
